± gives the uncertainty stated by the source.

The nature of the series: abundance fitness (aPCA) (normalised: wild type 0, dead -1); higher = more abundant; growth selection in yeast, the domain comes from the species named. To be noted: Homo sapiens.
As for “Lipoamide acyltransferase component of branched-chain alpha-keto acid dehydrogenase complex, mitochondrial A173C, P11182”, the abundance fitness was -0.163 ± 0.092.
“Lipoamide acyltransferase component of branched-chain alpha-keto acid dehydrogenase complex, mitochondrial A173D, P11182” yielded an abundance fitness of -0.296 ± 0.067.
Take “Lipoamide acyltransferase component of branched-chain alpha-keto acid dehydrogenase complex, mitochondrial A173E, P11182”: the abundance fitness is -0.219 ± 0.07.
Next, “Lipoamide acyltransferase component of branched-chain alpha-keto acid dehydrogenase complex, mitochondrial A173F, P11182”: -0.439 ± 0.096; “Lipoamide acyltransferase component of branched-chain alpha-keto acid dehydrogenase complex, mitochondrial A173G, P11182”: -0.287 ± 0.036; “Lipoamide acyltransferase component of branched-chain alpha-keto acid dehydrogenase complex, mitochondrial A173K, P11182”: -0.391 ± 0.068.
To “Lipoamide acyltransferase component of branched-chain alpha-keto acid dehydrogenase complex, mitochondrial A173L, P11182” belongs -0.411 ± 0.058.
“Lipoamide acyltransferase component of branched-chain alpha-keto acid dehydrogenase complex, mitochondrial A173M, P11182” returned an abundance fitness of -0.135 ± 0.057.
Next, “Lipoamide acyltransferase component of branched-chain alpha-keto acid dehydrogenase complex, mitochondrial A173N, P11182”: -0.424 ± 0.14; “Lipoamide acyltransferase component of branched-chain alpha-keto acid dehydrogenase complex, mitochondrial A173P, P11182”: -0.406 ± 0.087.
Next, “Lipoamide acyltransferase component of branched-chain alpha-keto acid dehydrogenase complex, mitochondrial A173Q, P11182”: -0.441 ± 0.048; “Lipoamide acyltransferase component of branched-chain alpha-keto acid dehydrogenase complex, mitochondrial A173R, P11182”: -0.608 ± 0.04; “Lipoamide acyltransferase component of branched-chain alpha-keto acid dehydrogenase complex, mitochondrial A173S, P11182”: -0.186 ± 0.046.
To “Lipoamide acyltransferase component of branched-chain alpha-keto acid dehydrogenase complex, mitochondrial A173T, P11182” belongs -0.05 ± 0.042; to “Lipoamide acyltransferase component of branched-chain alpha-keto acid dehydrogenase complex, mitochondrial A173V, P11182”, -0.059 ± 0.054.
“Lipoamide acyltransferase component of branched-chain alpha-keto acid dehydrogenase complex, mitochondrial A173W, P11182” gave an abundance fitness of -0.279 ± 0.071.
Substance “Lipoamide acyltransferase component of branched-chain alpha-keto acid dehydrogenase complex, mitochondrial A173Y, P11182” gave an abundance fitness of -0.153 ± 0.19.
Next, “Lipoamide acyltransferase component of branched-chain alpha-keto acid dehydrogenase complex, mitochondrial A176C, P11182”: -0.173 ± 0.051.
To “Lipoamide acyltransferase component of branched-chain alpha-keto acid dehydrogenase complex, mitochondrial A176D, P11182” belongs -0.047 ± 0.043.
Next, “Lipoamide acyltransferase component of branched-chain alpha-keto acid dehydrogenase complex, mitochondrial A176E, P11182”: -0.043 ± 0.06; “Lipoamide acyltransferase component of branched-chain alpha-keto acid dehydrogenase complex, mitochondrial A176G, P11182”: -0.074 ± 0.038.
“Lipoamide acyltransferase component of branched-chain alpha-keto acid dehydrogenase complex, mitochondrial A176H, P11182” had an abundance fitness of -0.128 ± 0.06.
To “Lipoamide acyltransferase component of branched-chain alpha-keto acid dehydrogenase complex, mitochondrial A176I, P11182” belongs -0.115 ± 0.089; to “Lipoamide acyltransferase component of branched-chain alpha-keto acid dehydrogenase complex, mitochondrial A176K, P11182”, -0.312 ± 0.065; to “Lipoamide acyltransferase component of branched-chain alpha-keto acid dehydrogenase complex, mitochondrial A176L, P11182”, -0.21 ± 0.046.
To “Lipoamide acyltransferase component of branched-chain alpha-keto acid dehydrogenase complex, mitochondrial A176M, P11182” belongs -0.127 ± 0.043; to “Lipoamide acyltransferase component of branched-chain alpha-keto acid dehydrogenase complex, mitochondrial A176N, P11182”, -0.113 ± 0.097.
“Lipoamide acyltransferase component of branched-chain alpha-keto acid dehydrogenase complex, mitochondrial A176P, P11182” displayed an abundance fitness of -0.203 ± 0.043.
To “Lipoamide acyltransferase component of branched-chain alpha-keto acid dehydrogenase complex, mitochondrial A176Q, P11182” belongs 0.017 ± 0.058; to “Lipoamide acyltransferase component of branched-chain alpha-keto acid dehydrogenase complex, mitochondrial A176R, P11182”, -0.143 ± 0.036.
Consider “Lipoamide acyltransferase component of branched-chain alpha-keto acid dehydrogenase complex, mitochondrial A176S, P11182”, for which the abundance fitness is -0.036 ± 0.039.
“Lipoamide acyltransferase component of branched-chain alpha-keto acid dehydrogenase complex, mitochondrial A176T, P11182” yielded an abundance fitness of -0.067 ± 0.051.
Next, “Lipoamide acyltransferase component of branched-chain alpha-keto acid dehydrogenase complex, mitochondrial A176V, P11182”: -0.168 ± 0.041.
For the substance “Lipoamide acyltransferase component of branched-chain alpha-keto acid dehydrogenase complex, mitochondrial A176W, P11182”, the abundance fitness is -0.473 ± 0.045.
Take “Lipoamide acyltransferase component of branched-chain alpha-keto acid dehydrogenase complex, mitochondrial A176Y, P11182”: the abundance fitness is -0.16 ± 0.06.
“Lipoamide acyltransferase component of branched-chain alpha-keto acid dehydrogenase complex, mitochondrial D197A, P11182” displayed an abundance fitness of -0.235 ± 0.036.
Regarding “Lipoamide acyltransferase component of branched-chain alpha-keto acid dehydrogenase complex, mitochondrial D197C, P11182”, the abundance fitness is -0.319 ± 0.095.
To “Lipoamide acyltransferase component of branched-chain alpha-keto acid dehydrogenase complex, mitochondrial D197E, P11182” belongs -0.098 ± 0.05; to “Lipoamide acyltransferase component of branched-chain alpha-keto acid dehydrogenase complex, mitochondrial D197F, P11182”, -0.26 ± 0.17; to “Lipoamide acyltransferase component of branched-chain alpha-keto acid dehydrogenase complex, mitochondrial D197H, P11182”, 0.025 ± 0.11.
Next, “Lipoamide acyltransferase component of branched-chain alpha-keto acid dehydrogenase complex, mitochondrial D197I, P11182”: -1.31 ± 0.15; “Lipoamide acyltransferase component of branched-chain alpha-keto acid dehydrogenase complex, mitochondrial D197K, P11182”: -0.23 ± 0.048; “Lipoamide acyltransferase component of branched-chain alpha-keto acid dehydrogenase complex, mitochondrial D197L, P11182”: -0.337 ± 0.055.
“Lipoamide acyltransferase component of branched-chain alpha-keto acid dehydrogenase complex, mitochondrial D197M, P11182” showed an abundance fitness of -0.382 ± 0.082.
For “Lipoamide acyltransferase component of branched-chain alpha-keto acid dehydrogenase complex, mitochondrial D197P, P11182”, the abundance fitness is -0.76 ± 0.13.
To “Lipoamide acyltransferase component of branched-chain alpha-keto acid dehydrogenase complex, mitochondrial D197Q, P11182” belongs -0.183 ± 0.044.

The record behind these values is the Human Domainome abundance scans (Beltran et al. 2025).
